Source: paper doi:10.1101/2022.07.20.500776v2

Substrate: O=[N+]([O-])c1ccc(OP(=O)(O)O)cc1
Experiment: purified protein
Conditions: pH 8.0, 100 mM Tris-HCl, 1 mM MgCl2, 10 °C, no added NaCl

B1: Vibrio alkaline phosphatase (VAP) (Vibrio sp. G15-21) (protein)
chain: AEIKNVILMIGDGMGPQQVGLLETYANQAPNSIYKGNKTAIYQLAQEGVIGSSLTHPEDAIVVDSACSATMLATGIYSSSEVIGIDSQGNHVETVLEKAKKAGKATGLVSDTRLTHATPASFAAHQPHRSLENQIASDMLATGADVMLSGGLRHWIPKSTNDKGETYKQLEKLTQGDVYLKSKRKDDRNLLTEAEKDGYQLAFNRNMLDDAKGDKLLGLFAYSGMDDGIAYSNKKKSGERTQPSLKEMTQKALNILSKDEDGFFLMVEGGQIDWAGHSNDAGTMLHELLKFDEAIQTVYEWAKDREDTIVIVTADHETGSFGFSYSSNDLPKPQKRSGEAFADRDYAPNFNFGAFDILDGLYNQKQSYYGMISEFQKLDKSLQTPEKLAEIVNKNSEFPITAEQAKNVLASKPNPYRLAQHKYLSAEEVPAINDFDAFFPYNDRGNLLAREQATGQNIVWGTGTHTHTPVNVFAWGPAEKILPVSKIMHHSELGEYIKQQVN
Question: Which Km does the source give for B1 here?
Answer: 7.6 ± 1.8 µM

Question: What about the kcat of the same protein?
Answer: 231 ± 15 s⁻¹
